Measurements taken from publication PMC10853767.

Target: NLS-GS-HIStag-GS-dCas12e-ABI (ABI domain fused directly to dCas12e)

yEGFP activation efficiency of the ABA-sensing YES gate with ABI fused directly to dCas12e and an unchanged sgRNA, circuit 3x; the pair is bridged by the small molecule ABA: 2.79 fold
Substance: HA-PYL1-linker-VP64-NLS (PYL1 fused to VP64) (domain or fragment)
